The source of these data is US20220081485A1 (BEIJING WISDOMAB BIOTECHNOLOGY, published 2022).

For orientation: Kd means a measure of binding affinity in units of concentration. Usually koff stands for the rate constant with which the complex falls apart. As a reminder, the kon is the second-order rate constant of association.

Changes are numbered by the printed parent chain. Where two headings read alike, the source gives them in different places.

Assay [1] addresses T1, coated recombinant IL4R antigen (Example 3.2) (human (Homo sapiens), UniProt P24394 26-232).
T1 sequence: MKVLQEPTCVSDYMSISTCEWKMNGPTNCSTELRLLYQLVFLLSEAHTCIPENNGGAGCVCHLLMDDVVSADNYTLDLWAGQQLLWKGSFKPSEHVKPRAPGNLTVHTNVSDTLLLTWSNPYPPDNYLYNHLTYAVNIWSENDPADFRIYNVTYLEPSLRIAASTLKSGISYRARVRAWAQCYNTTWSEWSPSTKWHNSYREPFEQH
Kind of assay: competition ELISA: phage-scFv at a fixed titer on coated recombinant IL4R, against a gradient of recombinant IL4; detected with HRP-anti-M13. (In general: An ELISA detects its analyte on a solid surface through an enzyme-linked reagent.)

Assay [2] addresses T2, recombinant hIL4R-his (human IL-4R extracellular domain with C-terminal His tag) (human (Homo sapiens), UniProt P24394 26-232).
T2 construct: The tag was added at the C-terminus; The protein was expressed in HEK293 cells; also called huIL4R
T2 sequence: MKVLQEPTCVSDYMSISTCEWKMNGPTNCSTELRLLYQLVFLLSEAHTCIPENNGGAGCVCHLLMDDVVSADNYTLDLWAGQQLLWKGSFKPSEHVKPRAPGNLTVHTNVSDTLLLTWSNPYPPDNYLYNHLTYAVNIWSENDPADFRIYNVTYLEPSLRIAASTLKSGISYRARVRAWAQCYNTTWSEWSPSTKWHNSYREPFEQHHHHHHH
Kind of assay: solid phase phage display screening with hIL4R-his as antigen.

Assay [3] concerns the target T3, human IL-4R on cells (HEK-Blue IL-4/IL-13 cells, TF-1 cells, human PBMCs) (human, UniProt P24394 26-825).
T3 sequence (looked up): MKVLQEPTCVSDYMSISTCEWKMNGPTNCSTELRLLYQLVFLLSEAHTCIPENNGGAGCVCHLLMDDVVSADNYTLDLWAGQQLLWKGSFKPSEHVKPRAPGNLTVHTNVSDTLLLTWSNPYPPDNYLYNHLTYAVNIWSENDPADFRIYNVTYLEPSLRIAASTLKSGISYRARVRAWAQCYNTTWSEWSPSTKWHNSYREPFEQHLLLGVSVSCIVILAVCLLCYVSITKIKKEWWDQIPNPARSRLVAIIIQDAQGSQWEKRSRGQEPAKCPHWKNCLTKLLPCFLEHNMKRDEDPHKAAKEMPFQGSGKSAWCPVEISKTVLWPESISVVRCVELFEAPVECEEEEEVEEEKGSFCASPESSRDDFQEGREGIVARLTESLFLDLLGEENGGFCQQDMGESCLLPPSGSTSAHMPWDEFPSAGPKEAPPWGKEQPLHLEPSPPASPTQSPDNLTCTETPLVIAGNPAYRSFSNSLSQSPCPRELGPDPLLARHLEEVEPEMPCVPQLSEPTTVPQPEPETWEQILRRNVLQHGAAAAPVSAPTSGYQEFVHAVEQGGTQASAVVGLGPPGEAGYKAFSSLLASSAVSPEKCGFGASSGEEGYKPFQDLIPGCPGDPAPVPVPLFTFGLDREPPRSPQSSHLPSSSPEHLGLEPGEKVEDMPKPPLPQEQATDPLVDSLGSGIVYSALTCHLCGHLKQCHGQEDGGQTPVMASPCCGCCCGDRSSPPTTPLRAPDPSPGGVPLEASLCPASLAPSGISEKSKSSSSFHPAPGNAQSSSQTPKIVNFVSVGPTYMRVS
Kind of assay: cell-based or functional assay.

For assay [4], the target named is T4, mmIL4R-mFc (Macaca mulatta IL-4R extracellular domain fused to murine IgG2a Fc) (Macaca mulatta).
T4 chain: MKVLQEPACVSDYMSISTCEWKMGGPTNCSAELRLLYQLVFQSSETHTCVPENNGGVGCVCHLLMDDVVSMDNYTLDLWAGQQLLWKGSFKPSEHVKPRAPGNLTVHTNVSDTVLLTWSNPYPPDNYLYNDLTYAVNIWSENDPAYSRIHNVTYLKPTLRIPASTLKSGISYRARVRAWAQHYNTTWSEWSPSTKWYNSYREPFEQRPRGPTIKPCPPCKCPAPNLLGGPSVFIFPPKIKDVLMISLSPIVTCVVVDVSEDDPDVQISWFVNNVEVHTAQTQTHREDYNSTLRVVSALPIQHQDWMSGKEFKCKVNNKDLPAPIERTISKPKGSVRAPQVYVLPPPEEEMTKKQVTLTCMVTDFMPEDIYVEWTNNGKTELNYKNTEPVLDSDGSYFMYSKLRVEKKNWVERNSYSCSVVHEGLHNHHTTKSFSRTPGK
Kind of assay: SPR Biacore X100, antibody captured, mmIL4R-mFc as analyte. As to the method:
(§1) The affinity of each anti-IL4R IgG4 chimeric antibody was determined using Biacore X100. Amino coupling kits, human antibody capture kits, CM5 chips, 1× HBS-EP (pH 7.4) and all reagents used in this assay were purchased from GE Healthcare. According to the instructions in the kits, an antibody against the human Fc region was coupled to the surface of the CM5 chip using an amino coupling method, and antibody proteins were diluted to appropriate concentrations to ensure that about 100 RU of the antibodies was captured by the antibody against the human Fc. IL4R-his was set to a series of concentration gradients (100 nm, 33.3 nm, 11.1 nm, 3.7 nm, 1.23 nm) and flew through the surface of the stationary phase.
Similarly, anti-IL4R monoclonal antibodies were captured and mmIL4R-mFc was set to a series of concentration gradient (50 nm, 16.7 nm, 5.56 nm, […], 0.62 nm).
In general terms: SPR reads the build-up and loss of mass on a sensor chip optically.

Assay [5] has as its target T3, human IL-4R on cells (HEK-Blue …). Kind of assay: cell-based or functional assay. This is another data set of the same source.
Assay [6] has the same target. Put plainly: cell-based or functional assay. This is another data set of the same source.
For assay [7], the target named is T5, IL4R-mFc (human IL-4R extracellular domain fused to murine IgG2a Fc) (human (Homo sapiens)).
T5 construct: also called antigen IL4R-mFc
Put plainly: blocking ELISA: antibody gradient with IL4-his at a fixed concentration on coated IL4R-mFc; bound IL4-his detected with HRP-mouse-anti-his IgG. As to the method:
(§2) 96 well plates were coated with antigen IL4R-mFc (3 μg/ml, 100 μI/well) overnight at 4° C.

Assay [8] has as its target T2, recombinant hIL4R-his (human IL-4R …). Kind of assay: SPR Biacore X100, antibody captured by anti-human Fc, IL4R-his as analyte, 25 C. As to the method: as §1
Assay [9] deals with T5, IL4R-mFc (human IL-4R extracellular …). Put plainly: blocking ELISA: antibody gradient with IL4-his at a fixed concentration on coated IL4R-mFc; bound IL4-his detected with HRP-mouse-anti-his IgG. The protocol:
as §2
The source holds these as a separate data set.

Assay [10] concerns the target T2, recombinant hIL4R-his (human IL-4R …). Kind of assay: SPR Biacore X100, antibody captured by anti-human Fc, IL4R-his as analyte, 25 C. The protocol: as §1
The source holds these as a separate data set.

B1: S1E6 phage-scFv (scFv)
scFv: EVQLVESGGGLVQPGGSLRLSCAVSGFTFSSYAMSWVRQAPGKGLEWVSSITGGGGGIYYADSVKGRFTISRDNSKNTVYLQMNSLRAEDTAVYYCAKDRISITIRPRYFGLDFWGQGTTVTVSSGGGGSGGGGSGGGGSDIVMTQSPLSLPVTPGEPASISCRSSRSVLYGNGYNYLDWYLQKSGQSPQLLIYLGTNVAAGVPDRFSGSGSGTDFTLKISRVEAEDVGFYYCMQSLRTPYTFGQGTKLEIK
notes: also called clone S1E6; S1E6 single chain antibody
Turning to B1, the binding result in assay [1] and in assay [2] was “binds” throughout.

B2: S2C2 phage-scFv (scFv)
scFv: QVQLQQSGPGLVKPSQTLSLTCAISGDSVSSNNDAWNWIRQSPSRGLEWLGRTYYRSKWYNDYAVSLKGRITINPDTSKNQFSLHLNSVTPEDTAVYYCAKRDSSVGVGAMDVWSQGTTVTVSSGGGGSGGGGSGGGGSVIWMTQSPSSLSASVGDRVTITCRSSQYIGKYLNWYQYKKGQVPKLLIYAASSLRSGVPSRFSGRGSATEFTLTISNLQREDFATYYCQKYNAVPLTFGQGTKLEIK
notes: also called clone S2C2
On to B2, for which the binding result in [1] and in assay [2] was “binds” each time.

B3: L28F8-IgG4 (antibody, V domains shown)
VH: EVQLVESGGGLVQPGGSLRLSCAVSGFTFSSYAMSWVRQAPGKGLEWVSSITGGGGGIYYADSVKGRFTISRDNSKNTVYLQMNSLRAEDTAVYYCAKDRISITIRPRYFGLDFWGQGTTVTVSS
VL: DIVMTQSPLSLPVTPGEPASISCRSSQNVVYGNGYNYLDWYLQKSGQSPQLLIYLGTNVAAGVPDRFSGSGSGTDFTLKISRVEAEDVGFYYCMQSLQAPYTFGQGTKLEIKR
notes: also called S1E6 light chain mutant L28F8
As for B3, the “IC50 values in inhibition of IL-13 (SEAP, HEK-Blue IL-4/IL-13 cells)” value in assay [3] stood at 0.0121 nM. Moreover, in assay [4], the Kd is 6.93 nM, the koff was 0.00519 s⁻¹ and the kon is 748000 M⁻¹ s⁻¹. Also, the “IC50 values in inhibition of IL-4 (IL-4 induced proliferation of TF-1 cells, CellTiter-Glo)” value in assay [5] came to 0.124 nM. In assay [6], the “IC50 values in inhibition of IL-4 (SEAP, HEK-Blue IL-4/IL-13 cells)” value stood at 0.055 nM. In assay [7], the “IC50 (read off the curve)” value is approximately 10 nM. In assay [8], the Kd came to 0.42 nM, the koff was 0.000144 s⁻¹ and the kon is 342000 M⁻¹ s⁻¹.

B4: L28G5-IgG4 (antibody, V domains shown)
VH: B3 VH
VL: B3 VL with Q27R, V30I, T57N
notes: also called S1E6 light chain mutant L28G5
As to B4, the “IC50 values in inhibition of IL-13 (SEAP, HEK-Blue IL-4/IL-13 cells)” value in assay [3] is 0.0115 nM. In addition, in assay [4], the Kd stood at 10.4 nM, the koff amounted to 0.00709 s⁻¹ and the kon came to 684000 M⁻¹ s⁻¹. The “IC50 values in inhibition of IL-4 (IL-4 induced proliferation of TF-1 cells, CellTiter-Glo)” value in assay [5] came to 0.118 nM. Also, in assay [6], the “IC50 values in inhibition of IL-4 (SEAP, HEK-Blue IL-4/IL-13 cells)” value was 0.0484 nM. Moreover, in assay [7], the “IC50 (read off the curve)” value is approximately 8 nM. Further, in assay [8], the Kd is 0.465 nM, the koff came to 0.000134 s⁻¹ and the on-rate (kon) is 289000 M⁻¹ s⁻¹.

B5: S1E6-IgG4 (antibody, V domains shown)
VH: B3 VH
VL: B3 VL with Q27R, N28S, V30L, Q98R, A99T
notes: also called monoclonal antibody S1E6
For B5, the Kd in [4] is 9.3 nM; in [10], 2.95 nM; in assay [8], 2.84 nM. The koff in assay [4] came out at 0.0049 s⁻¹; in assay [10], 0.000923 s⁻¹; in assay [8], 0.000709 s⁻¹. Further, the figures for the kon in assay [4], in [10] and in assay [8] were 527000 M⁻¹ s⁻¹, 312000 M⁻¹ s⁻¹ and 249000 M⁻¹ s⁻¹, respectively. Besides, the “IC50 (read off the curve)” value in assay [9] and in [7] was approximately 20 nM each time.

B6: S1H9 phage-scFv (scFv)
scFv: EVQLVESGGGLVQPGGSLRLSCAASGFTFSNYSMRWVRQAPGKGLEWVSFISASGSTKYYADSVKGRFTISRDNSKNTLYLQMNSLRAEDTAVYYCARKPTAPRSSALDYWGQGTLVTVSSGGGGSGGGGSGGGGSDIQMTQSPSSLSASVGDRVTITCRASQGVNNYLNWYQQKPGKAPKLLIYGASSRASGVPSRFSGSGSGTDFTLTISSLQPEDFATYYCQQRLSVPLTFGQGTKVEIK
notes: also called clone S1H9
For the molecule B6, the binding result in assay [1] and in assay [2] was “binds” throughout.
